{
  "source": "paper doi:10.1101/2020.12.31.424868",
  "about": "(bioRxiv, 2020)",
  "binders": {"B1": {"name": "H5.31 Fab (recombinant) (Fab, V domains shown)", "VH": "EVQLVQSGGGLVQPGGSLRLSCEASRFTSSSYWITWVRQAPGKGLEWVANIKQDGSEKYFVDSVKGRFTISRDNASNSLYLQMSSLRAEDTAVYYCARGFLERLLLGRQGAYYYGMDVWGQGTTVTVSS", "VL": "DIVMTQSPFSLSASVGDRVTMTCRASQSISSSLNWYQQKPGKAPKLLIYAASNLQSGVPSRFSGSGSGTDFTLTISSLQPEDFATYYCQQSYTMPPELTFGGGTKVEIK"}},
  "biological_target": "head domain of VN/04 HA (A/Vietnam/1203/2004 H5N1), monomeric (Influenza A virus A/Vietnam/1203/2004 …, strain)",
  "assay": "crystal structure",
  "data": [
    {"binder": "B1", "values": [
      {"measurement": "binding result", "value": "binds"}
    ]}
  ]
}
